Here are results for 20 sequences from a protein production outcome set (Wang et al. 2014).

This data set can be described thus: label from the status in PepcDB records.
Regarding “MGCYHPLSGTDGTLMRHTLPIAPQFYVTAPQPCPYLAGRMERKLFTALQGEGAERLNNALSQQGFRRSQNVLYRPSCADCAACLSARIDVSAFRASRSQKRAMRRNAHLTRRATSPWATDEQYELFRRYLDSRHADGGMADMDVFEFAAMIEETPIRSRVIEYAHRDTRALIGVSLTDVLDDGLSMVYSFYDPDLHRDSLGTHMILDHIAIAREAGLPYVYLGYWVPGSPKMGYKSRFSGLEIYLGGRWQAMTDPEAHDAIRHPLSTDPIAEQVANIQLPDRWPTGD”, the protein production entry is “failed”.

For the sequence “MEVIESKWYKKDGASSASIDDVEKLLNTTLPKQYKSFLLWSNGGEGKLGDNYIYIWAIEDVIAYNHDYGIQKYLQKEYWAFGMDGDIGYILHLSDNSIYRVDLGDLDITSIKYIAPSFDDFLGKAIYLNFNKLQNVANNNLTT”, the protein production entry is recorded as “not failed”.

As to “MATQLVKGNTAVIIGAMYAGCDCYFGYPITPASEILHEASKYFPMVGRKFVQAESEEAAINMVYGAASTGKRVLCATSGPGMSLKQEGISFLAGSELPCVLVNVQRAGPGLGNIGPEQADYNQAVKGGGHGNYKNIVLAPNSVQEMCDCTAKAFELATKYKNPVIVLSDGVLGQMVEPLKFPEQAIKPEIDESWAVRGTKETRKNLVTSIFLDFKQLEEFNYALQEKYEIIKENEQDFEGYQLDDAEIILVSYGISSRISKTAVDVARKEGIKAGLFRPKTLFPFPEKELNKLAEKKCTFISVEMSNGQMAEDIKLATCCKRPIELVNRLGGNLIEVDQILAKIKEIAGGN”, the protein production entry is reported as “failed”.

As to “MGLLVILNIVMRIPSIPHEKGYDSFFIHSLANSVANFGVAQWWINWMSVFGLYPYSYASAVPFTLSGMSQLTGIRMEIVILLFCVLLGLFSIFASYSLATVLYDNFLHRFLFAVIFSSSAGTLNLTTWEITTRAQILVFFPFLLYLLFQIIKFKTKFVMLFIVTALLLLATHHFVYMGLFYSGLIFIVALIYKLNRNQPFQIQKTQLRNINLNYMYISSVFFLIILIFLYGSKWGLITSGSRYAWIIDILMITGRNVGLTLLLSIGALIYYIFKKDKLLDEWAILICLIPTLIFSFNQTYGYLTTYLFVTLLGSAGLFNVIKNQKQNRKVVAATVVILIILNITFSTFFVHYRLGIGGGNSEWYMSEETYNTGEWIKENISWDKKAVSNSMQGNRLFASYGGQPVLYRDDISNYMNGFVTLNESKIEKKSPFSKSFYLDNPYVLKSGTTTSGLYSWISQYPITSENSQNFINGNNISYFYDDSLNYNRLFGSLPQSKNSIYNSGRMRIWEN”, the protein production result is given as “failed”.

In the case of “MGEMENIIYSIYHPTILVGFAIGILSLLAIGFQKNDLHALILTDVVECAMLIIIAGVGTDLAEALILPGLVVSLAELLAVSEVLITRKYLKSKRPKPKSYKLFEEFKLPLYTGELKYDIHMEILKTSPKFLAIILIVYGAILSGFTGGAVIATGLLFYALSQRVIGVEISEELKTMWEGISGLSGIAWALWIFGFIGFFVFPDKWLLCLLMAGLGLVIKVGSKLGLIGYIGEVR”, the protein production result is on record as “failed”.

As for “KALGSKEIPKGAENCLEGLIFVITGVLESIERDEAKSLIERYGGKVTGNVSKKTNYLVMGRDSGQSKSDKAAALGTKIIDEDGLLNLIRTMPGKKSKYEIAVETE”, the protein production entry was “not failed”.

As for “LRKSEERWQLAIVGTDEAIWDWDILTNHTYRSDRWFEMLGYERHEMSTFDDEWSIRIHPDDYNRVMAAQAAYLRREVPVYYTEYRLRCKDGNYKWFRSRAKGVWDEQGNPIRLVGSLGDITGRKSIELD”, the protein production result is recorded as “not failed”.

For the sequence “MTLTLNRQLLTSRQILVAFSGGLDSTVLLHQLVQWRTENPGVALRAIHVHHGLSANADAWVTHCENVCQQWQVPLVVERVQLAQEGLGIEAQARQARYQAFARTLLPGEVLVTAQHLDDQCETFLLALKRGSGPAGLSAMAEVSEFAGTRLIRPLLARTRGELVQWARQYDLRWIEDESNQDDSYDRNFLRLRVVPLLQQRWPHFAEATARSAALCAEQESLLDELLADDLAHCQSPQGTLQIVPMLAMSDARRAAIIRRWLAGQNAPMPSRDALVRIWQEVALAREDASPCLRLGAFEIRRYQSQLWWIKSVTGQSENIVPWQTWLQPLELPAGLGSVQLNAGGDIRPPRADEAVSVRFKAPGLLHIVGRNGGRKLKKIWQELGVPPWLRDTTPLLFYGETLIAAAGVFVTQEGVAEGENGVSFVWQKTLS”, the protein production entry is reported as “not failed”.

With “MSAQFMTTVPVVLYLALSFGVALWARGRTAEGGSAKDIIEEYYIGGRSMGGFVLAMTIIASYTSAGSFVGGPGVAYRLGLSWVLLAMIQVPTTFLTLGVLGKRFAIVARRAGAVTLTDYLLARYRSHTVVILCSAALLVFFMAAMLAQFIGGARLFQTVTGYPYVVGLALFGVTVVLYTAVGGFRAVVVTDAVQGIVMVVAVVVVLLAVIDAGGGMTQCIATLKAIDPGLITPTGPGDAVPQPFMLSFWVLVGLGVLGLPQTTQRCMGYRDSRAMHDAMIIGTLLIGFMILCAHLAGTLGRAVLPDLPAGDLAMPSLIVQLLSPFWAGVFIAGPLAAIMSTVDSMLLLASAAIVKDLYVRYRLGGDTSRLRPVTMKRMSVASTAVIGVLVFVAAMEPPDLLVWINLFAFGGLEAVFLWPLVLGLYWRRGNATGAIASILSGVTAFVWLTIAKPDMGGIHAIVPTTLLSLVMFVAGSLAGRPSGREVDALFGGERS”, the protein production entry is reported as “failed”.

For the sequence “MKFSVLMSLYVKEQPAFLAECLASLTAQSYPADEIVILYDGKVTAELEVVVQQYAPILPLKQVRFAENRGLGNTLNDGLKYCSHEWVFRMDSDDICDVDRFAKQVAFIQQHPDVVVFGGQIAEFGQNVQDIVAYRAVPTTHQQIVKFSRFRCPFNHMTVAYQKSKVLAVGGYQGLQEDYTLWIKMIASGFLTANLTDVLVYARVGNGMVGRRRNFTQFKYEWQLYRLKTQAKLHSRIVGLGIFALRAIPRILPLAILQRIYKLLRK”, the protein production entry is given as “failed”.

“MSTKELLFSFHGRIDRKTYWIWNVIYYISIIGFGAGISKLFPAFSYLLLPIFLLVLLIPDLAITTKRWHDRDKSIYWLGLNIPLVIGRIATPMTSPMAQEPSTPQLFIASISLICGLWILIECGFLKGTSGPNKYGPEPQ”: the protein production entry is given as “not failed”.

For the sequence “MRIIIVGGGKVGYQVARQCAAWGCDVVLVENDRQKGEKIKGELGLQVVIGDGTKAHFLKKAGAEEADIVVAVTDDDQDNLVICQLAERQFKAKRTLALVNNPGNEKLFRWLGVNQVIGPASLILGLIQERVDMDSTAAMWMQGIKDLKMIQFKLGPEAPVLGRKIKTIPFPNECILVTVVRENTAIVPCGNTVLEEGDLVFALANPAVQAELERVLTGKNDN”, the protein production result is on record as “failed”.

In the case of “MSAIDRGSGSSMEEPERPEGPLADADGRESVTDHQDTTAADTPEDATTGSAARSETGAAPDTAQAASAPSAAAAPASEPAASAAEQRDASHEAPAPGSRETPPHPAPRPAPFAPQSHAPHPAWGPPAPDQATARHGAQAYPGPEAPQPAPGRPGPPPAGGVPAGAAQGAWQERPAQHDQPNSPTGAWAVPPSPGGFFPPTGGFPTLHGSSPFEGAPPPGKPQRSGRVVLIAAVTALITSLIVGPAASVATAYFLSEQVAANPAATSAASGDVTKVAAKALPSVVSIATAEGGGSGFIIRDDGLIVTNNHVVSDAQELTVLFHDGSQASATIVGTDPVSDLAVIRAQGVSGLTPASLGDSDQVEVGAEVVAIGAPLGLSGTVTSGVVSAVERPVNTGVSGQQDSPLLPSPDEEEPQATTSTVIDAIQTDAPINPGNSGGPLVNMNGEVIGINTAIATTSGNFMSQSGSIGLGFAIPINQAKPIIEELINTGKATYAAIEASVTVAEDGPGAELVEVNRGGAADQAGLRKGDVIIRIEDRMVTDPNVLIAEIRSHRPGDTVTITYQRGGQTAQTTVTLAAQSLDN”, the protein production result was “failed”.

For the sequence “MKSRWIIGRSEYLDLAFHAWKQARQDETVIRIEVPQDSEHEFDLGVLDGLNPTDGAMFVAFDERFGNFKRVELMQAAMERGFKLESYIHSSAAIGTDVVIGLNTFVGAHAVVGHGCKIDYNTVIHAGAHLGTACRIKSSCWIENGVQIGAGVEIGGNSILRTGAIVRGGIKVGRSCELGWPRVYCEDVPAKTYFDARYHNPIHTFGT”, the protein production result is listed as “failed”.

Consider “MDERRAVVLVDELHLRKGGYEAEKVRVFAVRVSETLWAFKALWGSTPFTGTTFV”, for which the protein production entry was “failed”.

Take “LPIIVKWGGQEYSVTTLSKDDTVLDLKQFLKTLTGVLPERQKLLGLKVKGKPAENDVKLGALKLKPNTKIMMMGTRE”: the protein production entry was “not failed”.

As to “MGRNDPLAAYNAKRDFARTAEPAGKRKSSATGNLFIVQKHDATRLHWDFRMEVDGVLKSWAVTRGPSPDPDDKRLAVQTEDHPLEYARFEGIIPEGEYGGGTVMLWDKGTWEPVEGKSAKDLEKGHLHFRLEGERMKGEWLLVRLKRRGNEKRDNWLLRKLDDAYAGQGDQLVERGLTSVLTGRTMAEIASDKAGSHSLKGKRGKAFASVMEEAGTHNRKVGKARGKAPSRARRNAPLPAFQPVQLATLVDTVPDGRQWLYEIKFDGYRALVAVRGTEVRVFTRSGLDWTEKFAPLARHLAGLKLPSCLIDGEIVAADADGNPDFSRLQAVLKRGHGEQGEGDALSFHAFDLLELEGEDLKPLPNVERKQKLAALLAGVSPPIHVADHIIGGGEKLLGALCGAGQEGIICKRADAAYAGKRTQNWLKVKCVARQEFIVVGFTRSSARRRPFASLLLAQREGKALVYKGKVGTGFDEDLLQDLATRFEALKVDEGPLDVPITEARGVTWLKPELVAEIAFAEFTAEGRVRHASFVGLREDKKAADVVPERPAPLVVQPEIVPISNRERVIFPESGQTKGDLADYYAAMAPAMLPFIANRPVSLVRCPQGRARHCFFQKHDSGSFGEHVHHVPIREKDGNEEEYLFVSDAAGILSCVQMGTIEFHGWCSLASDVEAPERMVIDLDPDEGLDFNDVKRAARDIRDRLSDLGLVSFAMLSGGKGVHVVVPLRPDHTWEAHASFAERFARALALAEPDRYVATMSKARRKGRIFIDWLRNRRGSTAVMPYSARARANAPVAVPIAWEELDDFANAHPFCIGDTAGLLKRSEGKSLRGWGMAQQSLPDV”, the protein production result is given as “failed”.

Consider “MDEKPAITKIISGGQTGADRAALDFAIKHHIPYGGWVPKGRLAEGGRVPETYQLQEMPTSDYSKRTEKNVLDSDGTLIISHGILKGGSALTEFFAEQYKKPCLHIDLDRISIEDAATLINSWTVSHHIQVLNIAGPRAGKDPEIYQATMDLLEVFLA”, for which the protein production result is on record as “not failed”.

Turning to “MRPVGSKYLLEEPLGRGATGTVWRARQRETAGAEAAVAGQPGETVAIKVLKEELASDADIVMRFLRERSVLLRLTHPNIVRVRDLVVEGELLALVMDLIDGPDLHRYLRENGPLTPVAAALLTAQIADALAASHADGVVHRDLKPANVLLKQTGGEMHPMLTDFGIARLADSPGLTRTHEFVGTPAYVAPESAEGRPQTSAVDVYGAGILLYELVTGRPPFGGGSALEVLHQHLSAEPRRPSTVPDPLWTVIERCLRKNPDDRPSAENLARGLRVVAEGIGVHANSAQIGAAENVGALLAPDPAPAQVPGAPDAAYDPNGATSVLPHTSGPAGAADPTAVLPSTGAPDPTAVMPPVPPGQPGAPGQGGPEDPHPWQNQLRAARDRNEQTQVQYLDPNQDPLRRRPQRQVSRPPQQPRQAPQGPPPQQPGYGYPQQQQPQRYATPQPQQPQRYAPPPAPEPQQPRREPRPPRQRSANPMRIPGLGCLKGCLVTVVVLFVAGWLVWELSPLQEWIGTGKGYWDQLTDWFTTVTDWIGDLGGSGGG”, the protein production entry is “failed”.

Regarding “MTEQSAHEKYEFKKKLEGLRDKKGRSTELISLYIPPDKQIFDVTNQLKDEHGQAANIKSKLTRTNVQGAIESLLSRLRYLDKVPENGIVYFTGAVDIGANKTSMESEVIVPPDPITVYKYHCDSSFYLEPLEDMLKDKNTYGLLVLDRREATIGLLVGKRIQPFRNLTSTVPGKQRKGGQSAHRFQQLRLIAIHDFYKRIGDAASEVFMAVDHKDLKGVLIGGPSPTKEEFHAGEFLHHELMKKILGLFDTAYTDESGLSELVNAAGEKLQDLELMGQKNAVRDFFKELIADSGKVAYGESQVRANLEINSVDVLLLSEDLRAERVTTKCSVCGYENKWTRRWKPGEPAPAAGNCPKCGSSLEVTDVTDIVDEFSELADKSNAKVVFVSTDFDEGSQLMNAFGGIAAILRYNTGV”, the protein production entry is on record as “failed”.
